Measured values as given in paper PMC9321335, “Palmitic Acid-Conjugated Radiopharmaceutical for Integrin αvβ3-Targeted Radionuclide Therapy” (Pharmaceutics, 2022).

Key:
[1] = set-up: species or system KM mice; conditions: mouse, in vivo, iv
Description: Female KM mice were randomly divided into three groups (n = 5). […] Blood samples obtained from the canthus vein were collected at different time points post injection (p.i.), weighed, and evaluated using a γ-counter. The results are presented as the percentage injected activity per gram (%IA/g). Nonlinear regression (curve fit) followed by two phase decay was performed using GraphPad Prism version 9.0.0 for Windows, GraphPad Software, San Diego, CA, USA, www.graphpad.com (accessed on 22 May 2022). And then the half-lives values were calculated and determined.

in vivo = conditions: C57BL/6, mouse, total radioactivity; for tissue to tissue ratio at 1 h / tissue to tissue ratio at 4 h / tissue to tissue ratio at 12 h / tissue to tissue ratio at 24 h / tissue to tissue ratio at 72 h: Tumor-to-tissue ratio
Description: (§1) Mice bearing MC38 xenografts were randomly divided into 10 groups (n = 4). The mice in five groups were administered 0.74 MBq/20 µCi of ^177Lu-Palm-3PRGD2 and sacrificed at 1, 4, 12, 24, and 72 h p.i. The mice on one group was injected with 0.74 MBq/20 µCi of ^177Lu-Palm-3PRGD2 and 500 μg (242 nmol) 3PRGD2 as a blocking agent and sacrificed at 1 h p.i. […] Tumors and major organs were harvested, weighed and measured for radioactivity using a γ-counter. The organ uptake was calculated as the percentage injected activity per gram (%IA/g). The effective absorbed dose in humans estimated from mouse biodistribution data by using a dedicated software (OLINDA 1.0).

MC38 tumor-bearing mice = experiment: in vivo; conditions: mouse
Description: as §1

CCCCCCCCCCCCCCCC(=O)N[C@@H](CCC(=O)NCCCC[C@H](NC(=O)CN1CCN(CC(=O)O)CCN(CC(=O)O)CCN(CC(=O)O)CC1)C(=O)NCCOCCOCCOCCOCCC(=O)N[C@@H](CCC(=O)NCCOCCOCCOCCOCCC(=O)NCCCC[C@@H]1NC(=O)[C@@H](Cc2ccccc2)NC(=O)[C@H](CC(=O)O)NC(=O)CNC(=O)[C@H](CCCNC(=N)N)NC1=O)C(=O)NCCOCCOCCOCCOCCC(=O)NCCCC[C@@H]1NC(=O)[C@@H](Cc2ccccc2)NC(=O)[C@H](CC(=O)O)NC(=O)CNC(=O)[C@H](CCCNC(=N)N)NC1=O)C(=O)O [^177Lu-Palm-3PRGD2, [^177Lu]Lu-DOTA-Palm-3PRGD2, metal not drawn]
Half-Life (T1/2α) [1]: 4.49 min
Half-Life (T1/2β) [1]: 73.42 min
tissue uptake at 1 h (in vivo; 0.74 MBq, Blood uptake): 9.73 %ID/g
tissue uptake at 4 h (in vivo; 0.74 MBq, Blood uptake): 4.11 %ID/g
tissue uptake at 12 h (in vivo; 0.74 MBq, Blood uptake): 0.58 %ID/g
tissue uptake at 24 h (in vivo; 0.74 MBq, Blood uptake): 0.24 %ID/g
tissue uptake at 72 h (in vivo; 0.74 MBq, Blood uptake): 0.21 %ID/g
tissue uptake at 1 h (in vivo; 0.74 MBq, Bone uptake): 3.39 %ID/g
tissue uptake at 4 h (in vivo; 0.74 MBq, Bone uptake): 4.55 %ID/g
tissue uptake at 12 h (in vivo; 0.74 MBq, Bone uptake): 3.05 %ID/g
tissue uptake at 24 h (in vivo; 0.74 MBq, Bone uptake): 3.13 %ID/g
tissue uptake at 72 h (in vivo; 0.74 MBq, Bone uptake): 1.97 %ID/g
tissue uptake at 1 h (in vivo; 0.74 MBq, Brain uptake): 0.52 %ID/g
tissue uptake at 4 h (in vivo; 0.74 MBq, Brain uptake): 0.55 %ID/g
tissue uptake at 12 h (in vivo; 0.74 MBq, Brain uptake): 0.43 %ID/g
tissue uptake at 24 h (in vivo; 0.74 MBq, Brain uptake): 0.4 %ID/g
tissue uptake at 72 h (in vivo; 0.74 MBq, Brain uptake): 0.29 %ID/g
tissue uptake at 1 h (in vivo; 0.74 MBq, Heart uptake): 5.59 %ID/g
tissue uptake at 4 h (in vivo; 0.74 MBq, Heart uptake): 4.93 %ID/g
tissue uptake at 12 h (in vivo; 0.74 MBq, Heart uptake): 3.2 %ID/g
tissue uptake at 24 h (in vivo; 0.74 MBq, Heart uptake): 2.7 %ID/g
tissue uptake at 72 h (in vivo; 0.74 MBq, Heart uptake): 1.53 %ID/g
tissue uptake at 1 h (in vivo; 0.74 MBq, Intestinal uptake): 20.6 ± 1.97 %ID/g
tissue uptake at 72 h (in vivo; 0.74 MBq, Intestinal uptake): 12.8 ± 1.06 %ID/g
tissue uptake at 4 h (in vivo; 0.74 MBq, Intestine uptake): 17.6 %ID/g
tissue uptake at 12 h (in vivo; 0.74 MBq, Intestine uptake): 21.1 %ID/g
tissue uptake at 24 h (in vivo; 0.74 MBq, Intestine uptake): 17.4 %ID/g
tissue uptake at 1 h (in vivo; 0.74 MBq, Kidney uptake): 17.6 %ID/g
tissue uptake at 4 h (in vivo; 0.74 MBq, Kidney uptake): 20.1 ± 0.6 %ID/g
tissue uptake at 12 h (in vivo; 0.74 MBq, Kidney uptake): 19.3 %ID/g
tissue uptake at 24 h (in vivo; 0.74 MBq, Kidney uptake): 17 %ID/g
tissue uptake at 72 h (in vivo; 0.74 MBq, Kidney uptake): 10.6 ± 1.11 %ID/g
tissue uptake at 1 h (in vivo; 0.74 MBq, Liver uptake): 13.7 %ID/g
tissue uptake at 4 h (in vivo; 0.74 MBq, Liver uptake): 22.4 ± 2.55 %ID/g
tissue uptake at 12 h (in vivo; 0.74 MBq, Liver uptake): 22.1 %ID/g
tissue uptake at 24 h (in vivo; 0.74 MBq, Liver uptake): 13.7 %ID/g
tissue uptake at 72 h (in vivo; 0.74 MBq, Liver uptake): 6.73 ± 1.18 %ID/g
tissue uptake at 1 h (in vivo; 0.74 MBq, Lung uptake): 7.79 %ID/g
tissue uptake at 4 h (in vivo; 0.74 MBq, Lung uptake): 7.85 %ID/g
tissue uptake at 12 h (in vivo; 0.74 MBq, Lung uptake): 5.2 %ID/g
tissue uptake at 24 h (in vivo; 0.74 MBq, Lung uptake): 3.53 %ID/g
tissue uptake at 72 h (in vivo; 0.74 MBq, Lung uptake): 1.55 %ID/g
tissue uptake at 1 h (in vivo; 0.74 MBq, Muscle uptake): 1.96 %ID/g
tissue uptake at 4 h (in vivo; 0.74 MBq, Muscle uptake): 1.7 %ID/g
tissue uptake at 12 h (in vivo; 0.74 MBq, Muscle uptake): 1.24 %ID/g
tissue uptake at 24 h (in vivo; 0.74 MBq, Muscle uptake): 0.96 %ID/g
tissue uptake at 72 h (in vivo; 0.74 MBq, Muscle uptake): 0.7 %ID/g
tissue uptake at 1 h (in vivo; 0.74 MBq, Spleen uptake): 7.35 %ID/g
tissue uptake at 4 h (in vivo; 0.74 MBq, Spleen uptake): 12.4 %ID/g
tissue uptake at 12 h (in vivo; 0.74 MBq, Spleen uptake): 18.4 %ID/g
tissue uptake at 24 h (in vivo; 0.74 MBq, Spleen uptake): 14.9 %ID/g
tissue uptake at 72 h (in vivo; 0.74 MBq, Spleen uptake): 8.38 %ID/g
tissue uptake at 1 h (in vivo; 0.74 MBq, Stomach uptake): 5.73 %ID/g
tissue uptake at 4 h (in vivo; 0.74 MBq, Stomach uptake): 7.22 %ID/g
tissue uptake at 12 h (in vivo; 0.74 MBq, Stomach uptake): 6.07 %ID/g
tissue uptake at 24 h (in vivo; 0.74 MBq, Stomach uptake): 3.7 %ID/g
tissue uptake at 72 h (in vivo; 0.74 MBq, Stomach uptake): 1.38 %ID/g
tissue uptake at 1 h (in vivo; 0.74 MBq, Tumor uptake): 14.4 ± 2.53 %ID/g
tissue uptake at 4 h (in vivo; 0.74 MBq, Tumor uptake): 26.3 ± 6.34 %ID/g
tissue uptake at 12 h (in vivo; 0.74 MBq, Tumor uptake): 22.9 ± 4.2 %ID/g
tissue uptake at 24 h (in vivo; 0.74 MBq, Tumor uptake): 17.2 ± 3.3 %ID/g
tissue uptake at 72 h (in vivo; 0.74 MBq, Tumor uptake): 5.83 ± 1.27 %ID/g
tissue to tissue ratio at 1 h (in vivo; 0.74 MBq, Blood): 1.47
tissue to tissue ratio at 4 h (in vivo; 0.74 MBq, Blood): 7.28
tissue to tissue ratio at 12 h (in vivo; 0.74 MBq, Blood): 44.9
tissue to tissue ratio at 24 h (in vivo; 0.74 MBq, Blood): 73.2
tissue to tissue ratio at 72 h (in vivo; 0.74 MBq, Blood): 28.2
tissue to tissue ratio at 1 h (in vivo; 0.74 MBq, Bone): 4.3
tissue to tissue ratio at 4 h (in vivo; 0.74 MBq, Bone): 6.66
tissue to tissue ratio at 12 h (in vivo; 0.74 MBq, Bone): 7.14
tissue to tissue ratio at 24 h (in vivo; 0.74 MBq, Bone): 5.61
tissue to tissue ratio at 72 h (in vivo; 0.74 MBq, Bone): 2.96
tissue to tissue ratio at 1 h (in vivo; 0.74 MBq, Brain): 27.9
tissue to tissue ratio at 4 h (in vivo; 0.74 MBq, Brain): 55.3
tissue to tissue ratio at 12 h (in vivo; 0.74 MBq, Brain): 52.5
tissue to tissue ratio at 24 h (in vivo; 0.74 MBq, Brain): 42.5
tissue to tissue ratio at 72 h (in vivo; 0.74 MBq, Brain): 19.9
tissue to tissue ratio at 1 h (in vivo; 0.74 MBq, Heart): 2.59
tissue to tissue ratio at 4 h (in vivo; 0.74 MBq, Heart): 6.12
tissue to tissue ratio at 12 h (in vivo; 0.74 MBq, Heart): 7.11
tissue to tissue ratio at 24 h (in vivo; 0.74 MBq, Heart): 6.41
tissue to tissue ratio at 72 h (in vivo; 0.74 MBq, Heart): 3.86
tissue to tissue ratio at 1 h (in vivo; 0.74 MBq, Intestine): 0.77
tissue to tissue ratio at 4 h (in vivo; 0.74 MBq, Intestine): 1.62
tissue to tissue ratio at 12 h (in vivo; 0.74 MBq, Intestine): 1.06
tissue to tissue ratio at 24 h (in vivo; 0.74 MBq, Intestine): 1
tissue to tissue ratio at 72 h (in vivo; 0.74 MBq, Intestine): 0.45
tissue to tissue ratio at 1 h (in vivo; 0.74 MBq, Kidney): 0.82
tissue to tissue ratio at 4 h (in vivo; 0.74 MBq, Kidney): 1.42
tissue to tissue ratio at 12 h (in vivo; 0.74 MBq, Kidney): 1.2
tissue to tissue ratio at 24 h (in vivo; 0.74 MBq, Kidney): 1.01
tissue to tissue ratio at 72 h (in vivo; 0.74 MBq, Kidney): 0.56
tissue to tissue ratio at 1 h (in vivo; 0.74 MBq, Liver): 1.06
tissue to tissue ratio at 4 h (in vivo; 0.74 MBq, Liver): 1.02
tissue to tissue ratio at 12 h (in vivo; 0.74 MBq, Liver): 1.05
tissue to tissue ratio at 24 h (in vivo; 0.74 MBq, Liver): 1.3
tissue to tissue ratio at 72 h (in vivo; 0.74 MBq, Liver): 0.89
tissue to tissue ratio at 1 h (in vivo; 0.74 MBq, Lung): 1.87
tissue to tissue ratio at 4 h (in vivo; 0.74 MBq, Lung): 3.98
tissue to tissue ratio at 12 h (in vivo; 0.74 MBq, Lung): 3.86
tissue to tissue ratio at 24 h (in vivo; 0.74 MBq, Lung): 4.89
tissue to tissue ratio at 72 h (in vivo; 0.74 MBq, Lung): 3.78
tissue to tissue ratio at 1 h (in vivo; 0.74 MBq, Muscle): 7.33
tissue to tissue ratio at 4 h (in vivo; 0.74 MBq, Muscle): 17.5
tissue to tissue ratio at 12 h (in vivo; 0.74 MBq, Muscle): 18
tissue to tissue ratio at 24 h (in vivo; 0.74 MBq, Muscle): 17.9
tissue to tissue ratio at 72 h (in vivo; 0.74 MBq, Muscle): 8.33
tissue to tissue ratio at 1 h (in vivo; 0.74 MBq, Spleen): 2.02
tissue to tissue ratio at 4 h (in vivo; 0.74 MBq, Spleen): 2.56
tissue to tissue ratio at 12 h (in vivo; 0.74 MBq, Spleen): 1.4
tissue to tissue ratio at 24 h (in vivo; 0.74 MBq, Spleen): 1.35
tissue to tissue ratio at 72 h (in vivo; 0.74 MBq, Spleen): 0.7
tissue to tissue ratio at 1 h (in vivo; 0.74 MBq, Stomach): 2.57
tissue to tissue ratio at 4 h (in vivo; 0.74 MBq, Stomach): 4.06
tissue to tissue ratio at 12 h (in vivo; 0.74 MBq, Stomach): 3.84
tissue to tissue ratio at 24 h (in vivo; 0.74 MBq, Stomach): 4.74
tissue to tissue ratio at 72 h (in vivo; 0.74 MBq, Stomach): 4.25
tissue to tissue ratio at 1 h (in vivo; Blood): 0.25
tissue to tissue ratio at 1 h (in vivo; Bone): 2.51
tissue to tissue ratio at 1 h (in vivo; Brain): 14.8
tissue to tissue ratio at 1 h (in vivo; Heart): 1.32
tissue to tissue ratio at 1 h (in vivo; Intestine): 0.96
tissue to tissue ratio at 1 h (in vivo; Kidney): 0.69
tissue to tissue ratio at 1 h (in vivo; Liver): 1.19
tissue to tissue ratio at 1 h (in vivo; Lung): 0.71
tissue to tissue ratio at 1 h (in vivo; Muscle): 3.53
tissue to tissue ratio at 1 h (in vivo; Spleen): 1.61
tissue to tissue ratio at 1 h (in vivo; Stomach): 1.64
AUC0h→72h in MC38 tumor (MC38 tumor-bearing mice): 1031.0 ± 97.25 % IA/g·h
AUC0h→72h in blood (MC38 tumor-bearing mice): 104.5 ± 7.98 % IA/g·h
AUC0h→72h in kidney (MC38 tumor-bearing mice): 1087.0 ± 62.73 % IA/g·h
AUC0h→72h in liver (MC38 tumor-bearing mice): 915.6 ± 74.74 % IA/g·h
